Series [1] has as its target Thermococcus kodakarensis proliferating cell nuclear antigen PCNA1 (TkoPCNA), homotrimer (UniProt Q5JF32). As to the kind of experiment: SPR. The following applies: PCNA immobilized on a sensor chip, PolD at 500 nM, read off a plot.
The target of series [2] is DP1 (PolD small subunit);DP2 (PolD large subunit);TkoPCNA (PCNA1) (Thermococcus kodakarensis;Thermococcus …, UniProt Q5JET1;Q5JET0;Q5JET0;Q5JF32 1-735;1-963;1438-1798;1-249, ||). Put plainly: gel filtration; 50 mM NaCl elution; EMSA: 20 mM Tris-HCl pH 8.0, 10 mM KCl, 10 mM (NH4)2SO4, 1 mM DTT, 0.1 mg/ml BSA, 2 mM MgCl2, 40 C 10 min, 0.8% agarose 0.1x TAE; EM complex: 50 mM Tris-HCl pH. The following applies: protein: recombinant;recombinant;recombinant; tags: ;;; copies: 1;1;1;3; primer-template, 5' overhang 15 nt on template. Background: Size exclusion chromatography separates by hydrodynamic size, large species first.
DP1 (PolD small subunit);DP2 (PolD large subunit);TkoPCNA (PCNA1), sequence (Q5JET0 1-963, one chain of several): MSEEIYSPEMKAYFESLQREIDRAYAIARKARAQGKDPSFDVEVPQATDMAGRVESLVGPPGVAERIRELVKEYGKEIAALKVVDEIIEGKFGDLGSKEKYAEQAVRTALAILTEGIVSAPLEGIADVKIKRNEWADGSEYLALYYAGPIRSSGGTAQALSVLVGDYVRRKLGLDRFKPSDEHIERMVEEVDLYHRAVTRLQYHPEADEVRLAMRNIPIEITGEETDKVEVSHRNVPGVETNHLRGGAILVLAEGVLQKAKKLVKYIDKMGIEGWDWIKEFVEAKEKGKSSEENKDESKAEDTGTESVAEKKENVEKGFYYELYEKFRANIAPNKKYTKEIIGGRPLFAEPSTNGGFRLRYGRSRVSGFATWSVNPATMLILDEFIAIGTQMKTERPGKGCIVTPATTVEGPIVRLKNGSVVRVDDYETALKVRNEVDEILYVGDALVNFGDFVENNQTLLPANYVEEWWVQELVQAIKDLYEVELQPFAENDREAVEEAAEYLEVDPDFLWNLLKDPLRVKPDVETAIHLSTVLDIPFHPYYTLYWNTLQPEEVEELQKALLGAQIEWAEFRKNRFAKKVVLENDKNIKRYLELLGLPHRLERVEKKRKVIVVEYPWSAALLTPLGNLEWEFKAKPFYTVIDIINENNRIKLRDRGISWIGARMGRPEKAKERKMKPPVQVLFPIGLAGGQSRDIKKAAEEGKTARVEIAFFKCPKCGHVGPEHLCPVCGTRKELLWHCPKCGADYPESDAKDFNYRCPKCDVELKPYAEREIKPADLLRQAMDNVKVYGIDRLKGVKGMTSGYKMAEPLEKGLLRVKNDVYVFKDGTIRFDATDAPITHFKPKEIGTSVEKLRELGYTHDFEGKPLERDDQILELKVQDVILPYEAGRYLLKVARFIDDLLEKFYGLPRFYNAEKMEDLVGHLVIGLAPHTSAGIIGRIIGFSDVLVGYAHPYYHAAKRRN

Series [3] concerns the target T1, DP1 (PolD small subunit);DP2CTD (Thermococcus kodakarensis;Thermococcus …, UniProt Q5JET1;Q5JET0 1-735;1474-1798, |).
T1 sequence 1: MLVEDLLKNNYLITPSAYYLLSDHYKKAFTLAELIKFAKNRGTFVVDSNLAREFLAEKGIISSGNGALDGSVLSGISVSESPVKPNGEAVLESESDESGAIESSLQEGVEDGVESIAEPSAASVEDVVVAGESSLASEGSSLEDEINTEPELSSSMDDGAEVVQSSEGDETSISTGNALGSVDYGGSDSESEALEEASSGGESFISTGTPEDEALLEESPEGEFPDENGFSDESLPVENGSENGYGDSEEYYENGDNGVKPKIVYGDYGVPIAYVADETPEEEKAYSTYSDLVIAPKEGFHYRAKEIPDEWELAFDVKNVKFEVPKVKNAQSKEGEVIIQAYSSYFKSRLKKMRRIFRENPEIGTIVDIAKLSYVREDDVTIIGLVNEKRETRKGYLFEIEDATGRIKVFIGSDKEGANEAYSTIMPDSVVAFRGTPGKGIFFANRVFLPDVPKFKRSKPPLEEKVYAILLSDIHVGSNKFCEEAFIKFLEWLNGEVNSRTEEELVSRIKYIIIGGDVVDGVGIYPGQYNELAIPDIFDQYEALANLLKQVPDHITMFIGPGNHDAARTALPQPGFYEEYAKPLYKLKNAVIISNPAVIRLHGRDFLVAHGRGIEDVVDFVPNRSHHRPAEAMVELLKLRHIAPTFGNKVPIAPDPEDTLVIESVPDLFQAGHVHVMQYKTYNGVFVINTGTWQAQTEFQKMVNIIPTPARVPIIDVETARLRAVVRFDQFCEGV
T1 sequence 2: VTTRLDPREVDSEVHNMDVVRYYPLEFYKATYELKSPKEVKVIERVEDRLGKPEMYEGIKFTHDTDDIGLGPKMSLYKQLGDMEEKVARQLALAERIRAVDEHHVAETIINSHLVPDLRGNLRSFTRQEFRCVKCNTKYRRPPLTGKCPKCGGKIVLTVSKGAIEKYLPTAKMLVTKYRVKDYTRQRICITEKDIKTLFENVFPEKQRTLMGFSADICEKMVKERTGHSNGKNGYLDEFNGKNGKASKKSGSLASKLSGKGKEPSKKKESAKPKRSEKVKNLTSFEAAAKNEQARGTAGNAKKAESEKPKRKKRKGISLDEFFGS
Put plainly: EMSA; 2 mM MgCl2; EMSA: 20 mM Tris-HCl pH 8.0, 10 mM KCl, 10 mM (NH4)2SO4, 1 mM DTT, 0.1 mg/ml BSA, 2 mM MgCl2, 40 C 10 min, 0.8% agarose 0.1x TAE; EM complex: 50 mM Tris-HCl pH. Conditions: protein: recombinant;recombinant; tags: ;His; copies: 1;1; label: 5' Cy5 on primer; primer-template, 5' overhang 13 nt on template. Background: In EMSA bound probe runs differently from free probe, usually more slowly.

For the next series, the target named is T2, DP2CTD (Thermococcus kodakarensis, UniProt Q5JET0 1474-1798).
T2 sequence: T1 sequence 2
As to the kind of experiment: EMSA; 2 mM MgCl2; readily detectable but weaker than DP1-DP2CTD; EMSA: 20 mM Tris-HCl pH 8.0, 10 mM KCl, 10 mM (NH4)2SO4, 1 mM DTT, 0.1 mg/ml BSA, 2 mM MgCl2, 40 C 10 min, 0.8% agarose 0.1x TAE; EM complex: 50 mM Tris-HCl pH. Conditions: protein: recombinant; tags: His; label: 5' Cy5 on primer; primer-template, 5' overhang 13 nt on template.

For series [4], the target named is T3, PolDΔPIP: PolD with DP2(Δ1314-1324) (Thermococcus kodakarensis). As to the kind of experiment: SPR.
Series [5] concerns the target T4, Thermococcus kodakarensis DNA polymerase D (PolD), wild type, DP1-DP2 heterodimer (Thermococcus kodakarensis). As to the kind of experiment: SPR. On the technique in general: In SPR one partner is held on a chip, and binding of the other changes the refractive index at the surface.
Series [6] concerns the target T5, PolDΔPIPΔKR: PolD with DP1(K326A K328A) and DP2(K432A R434A R781A, Δ1314-1324) (Thermococcus kodakarensis, UniProt Q5JET0 1-1313, K432A | R434A | R781A, DP1 residue 328 is Ala (wild type printed as both K328 and R328, so the Ala is spliced in). DP2 is the mature intein-free form, residues 1-1313 (PIP box 1314-1324 deleted; mature 1313 = precursor …). As to the kind of experiment: SPR.

Series [7] concerns the target T6, PolDΔKR: PolD with DP1(K326A K328A) and DP2(K432A R434A R781A) (Thermococcus kodakarensis, DP1 residue 328 is Ala (wild type printed as both K328 and R328, so the Ala is spliced in; the mutagenic primer encodes Ala-Val-Ala at 326-328). DP2 is the mature intein-free form (1324 aa). Zn bound …). As to the kind of experiment: SPR.
In series [8] the target is T3, PolDΔPIP: PolD with DP2(Δ1314-1324). As to the kind of experiment: SPR. The source holds these as a separate data set.
Series [9] concerns the target T4, Thermococcus kodakarensis DNA …. Put plainly: SPR. This is another data set of the same source.
Series [10] concerns the target T5, PolDΔPIPΔKR: PolD with DP1(K326A K328A) …. As to the kind of experiment: SPR. The source holds these as a separate data set.
Series [11] concerns the target T6, PolDΔKR: PolD with DP1(K326A K328A) and …. Put plainly: SPR. This is another data set of the same source.
Series [12] deals with the molecule itself. Put plainly: cryo-EM structure; PolD-PCNA-primed DNA complex reconstituted from purified proteins without Mg2+ and isolated by gel filtration; Form A with DNA (25/35) at 6.9 Å, Form A and Form B with DNA (30/45); crystal structures and homology models fitted.

Take “Thermococcus kodakarensis DNA polymerase D (PolD), wild type, DP1-DP2 heterodimer DP1:K326A; DP1:K328A; DP2:K432A; DP2:R434A; DP2:R781A”: the response in series [1] (parent: est. 1050) was determined as 450 RU.
As for “PolDΔPIP: PolD with DP2(Δ1314-1324) DP1:K326A; DP1:K328A; DP2:K432A; DP2:R434A; DP2:R781A”, in series [1] (parent: est. 700), the response was found to be 150 RU.

B1: primed DNA (30/45) (dsDNA)
DNA 1: CGAACTGCCTGGAATCCTGACGACATGTAG
DNA 2: TGAGGTGATCGTTCGCTACATGTCGTCAGGATTCCAGGCAGTTCG
modifications: four successive phosphorothioates near the 3' end of both strands
Regarding B1, in series [2], the binding result was “binds”.

B2: primed DNA Cy5-pri32/temp45 (dsDNA)
DNA 1: CGAACTGCCTGGAATCCTGACGACATGTAGCG
DNA 2: B1 DNA 2
As to B2, the binding result (in series [3]; in the series with DP2CTD) was “binds” throughout.

B3: Thermococcus kodakarensis proliferating cell nuclear antigen PCNA1 (TkoPCNA), homotrimer (natural protein)
chain: MPFEVVFDGAKEFADLIATASNLIDEAAFKFTEEGISMRAMDPSRVVLIDLNLPESIFSKYEVEEPETIGINMDQFKKILKRGKAKDTLILRKGDENFLEITFEGTAKRTFRLPLIDVEELELELPELPFTAKVVLLGEVLKEGIKDASLVSDAIKFIAKENEFTMKAEGETNEVEIRLTLEDEGLLDLEVEEETKSAYGIRYLSDMVKGIGKADEVILRFGNEMPLQMEYMIRDEGRLTFLLAPRVEE
notes: source: purified as described previously [23]
Usually Kd stands for the constant that tells how readily two partners part at equilibrium. A low value points to tighter binding. In general, koff refers to a measure of how fast the partners let go of each other. Read a low koff as a long-lived complex. Broadly, the stoichiometry N is a count of units in the complex or per binding partner. Take B3: the dissociation constant Kd in [4] is 1.3 µM; in series [5] it was 0.48 µM; in series [6] it was 12 µM; in series [7], 4.5 µM. Besides, the off-rate (koff) in series [8] is 0.006 s⁻¹; in series [9], 0.0048 s⁻¹; in [10], 0.016 s⁻¹; in series [11] it was 0.0087 s⁻¹. Further, in series [12], the “stoichiometry N” value is 3.

The values are drawn from PMC7594292, “Two conformations of DNA polymerase D-PCNA-DNA, an archaeal replisome complex, revealed by cryo-electron microscopy” (BMC Biology, 2020).
